According to publication PMC7614228, “Structural maturation of SYCP1-mediated meiotic chromosome synapsis by SYCE3” (Nature structural & molecular biology, 2023):
Substitutions are numbered along the chain they refer to. Names may count otherwise. “And” between values parts separate entries of the source, which are not always exact repeats. Identical values can stand only once.

T1: SYCP1αNcore (amino-acids 206-362) (human, UniProt Q15431 206-362)
T1 construct: SYCP1 αNcore (tetrameric core), amino-acids 206-362; Tetramer alone (SEC-MALS); two chains in the 2:1 complex with SYCE3; also called SYCP1 tetrameric core; source: E. coli BL21(DE3), purified alone or co-expressed and co-purified with SYCE3 (amylose, TEV, anion exchange, SEC); not shown: MBP, N-terminal, cleaved
T1 sequence (looked up): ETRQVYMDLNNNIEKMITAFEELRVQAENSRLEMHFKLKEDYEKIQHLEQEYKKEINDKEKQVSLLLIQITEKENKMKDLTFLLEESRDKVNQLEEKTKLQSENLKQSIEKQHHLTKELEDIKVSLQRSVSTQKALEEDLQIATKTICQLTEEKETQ

T2: SYCE2-TEX12core (human, UniProt Q6PIF2 57-165; Q9BXU0 49-123, RED dye (Monolith NT Protein Labelling Kit RED) in the MST only; which chain not stated | RED dye (Monolith NT Protein Labelling Kit RED) in the MST only; which chain not stated)
T2 construct: SYCE2 core; TEX12 core; Unlabelled in the SEC, labelled in the MST; source: E. coli BL21(DE3), purified
T2 sequence (looked up) 1: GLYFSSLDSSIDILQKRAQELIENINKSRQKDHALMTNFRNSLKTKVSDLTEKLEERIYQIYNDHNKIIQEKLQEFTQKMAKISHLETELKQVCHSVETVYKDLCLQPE
T2 sequence (looked up) 2: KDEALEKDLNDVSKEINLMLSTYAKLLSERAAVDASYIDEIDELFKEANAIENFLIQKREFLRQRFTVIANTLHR

T3: SYCP1αN (amino-acids 101-362) (human, UniProt Q15431 101-362)
T3 construct: SYCP1 α-helical N-terminal region, amino-acids 101-362; source: E. coli BL21(DE3), purified, alone or co-expressed and co-purified with SYCE3
T3 sequence (looked up): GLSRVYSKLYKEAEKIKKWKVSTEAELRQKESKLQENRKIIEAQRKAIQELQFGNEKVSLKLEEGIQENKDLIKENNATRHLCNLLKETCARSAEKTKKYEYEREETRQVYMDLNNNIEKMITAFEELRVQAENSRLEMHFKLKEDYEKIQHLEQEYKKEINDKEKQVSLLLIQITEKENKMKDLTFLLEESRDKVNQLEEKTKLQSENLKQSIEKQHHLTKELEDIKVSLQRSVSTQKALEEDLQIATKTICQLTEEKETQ

T4: SYCP1αN ΔNtip (human, UniProt Q15431 112-362)
T4 construct: SYCP1αN (101-362) with the αNtip (101-111) deleted; also called SYCP1 ΔNtip; source: E. coli BL21(DE3), co-purified with SYCE3
T4 sequence (looked up): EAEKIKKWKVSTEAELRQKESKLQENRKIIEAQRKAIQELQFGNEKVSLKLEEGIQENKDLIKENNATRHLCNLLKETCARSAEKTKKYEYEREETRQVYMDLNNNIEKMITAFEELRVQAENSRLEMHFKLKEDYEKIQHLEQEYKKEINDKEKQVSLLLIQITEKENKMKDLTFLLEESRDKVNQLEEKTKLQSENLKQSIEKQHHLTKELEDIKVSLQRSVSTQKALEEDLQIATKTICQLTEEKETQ

T5: SYCP1αN V105E L109E (human, UniProt Q15431 101-362, V105E | L109E)
T5 construct: SYCP1αN, amino-acids 101-362, with V105E L109E; source: E. coli BL21(DE3), in complex with SYCE3
T5 sequence (looked up): T3 sequence (looked up) with V5E, L9E

T6: MBP-SYCP1αN (human, UniProt Q15431 101-362)
T6 construct: SYCP1αN, amino-acids 101-362; source: E. coli BL21(DE3), co-purified with His-SYCE3
T6 sequence (looked up): T3 sequence (looked up)

T7: MBP-SYCP1αNcore (amino-acids 206-362) (human, UniProt Q15431 206-362)
T7 construct: SYCP1 αNcore (tetrameric core), amino-acids 206-362; source: E. coli BL21(DE3), co-expressed with SYCE3 constructs; in lysate (amylose pull-down) or co-purified (amylose, anion exchange, SEC); not shown: MBP, N-terminal, kept
T7 sequence (looked up): T1 sequence (looked up)

B1: SYCP1 αCore-ΔNtip (amino-acids 112-783) (domain or fragment, human, UniProt Q15431 112-783, looked up)
chain: EAEKIKKWKVSTEAELRQKESKLQENRKIIEAQRKAIQELQFGNEKVSLKLEEGIQENKDLIKENNATRHLCNLLKETCARSAEKTKKYEYEREETRQVYMDLNNNIEKMITAFEELRVQAENSRLEMHFKLKEDYEKIQHLEQEYKKEINDKEKQVSLLLIQITEKENKMKDLTFLLEESRDKVNQLEEKTKLQSENLKQSIEKQHHLTKELEDIKVSLQRSVSTQKALEEDLQIATKTICQLTEEKETQMEESNKARAAHSFVVTEFETTVCSLEELLRTEQQRLEKNEDQLKILTMELQKKSSELEEMTKLTNNKEVELEELKKVLGEKETLLYENKQFEKIAEELKGTEQELIGLLQAREKEVHDLEIQLTAITTSEQYYSKEVKDLKTELENEKLKNTELTSHCNKLSLENKELTQETSDMTLELKNQQEDINNNKKQEERMLKQIENLQETETQLRNELEYVREELKQKRDEVKCKLDKSEENCNNLRKQVENKNKYIEELQQENKALKKKGTAESKQLNVYEIKVNKLELELESAKQKFGEITDTYQKEIEDKKISEENLLEEVEKAKVIADEAVKLQKEIDKRCQHKIAEMVALMEKHKHQYDKIIEERDSELGLYKSKEQEQSSLRASLEIELSNLKAELLSVKKQLEIEREEKEKLKREAKE
notes: SYCP1 α-helical core without the αNtip, amino-acids 112-783; also called SYCP1's full α-helical core, in which αNtips were deleted; source: E. coli BL21(DE3), purified, alone or in complex with SYCE3
B2: SYCE3 (natural protein, human, UniProt A1L190 1-88, looked up)
chain: MDDADPEERNYDNMLKMLSDLNKDLEKLLEEMEKISVQATWMAYDMVVMRTNPTLAESMRRLEDAFVNCKEEMEKNWQELLHETKQRL
notes: SYCE3 without a stated truncation; Dimer alone (SEC-MALS); one chain in the 2:1 complex with SYCP1; also called SYCE3 wild-type; free SYCE3; source: E. coli BL21(DE3), purified (Ni-NTA or amylose, TEV, anion exchange, SEC), alone or co-purified with SYCP1 constructs; not shown: His or His-MBP, N-terminal, cleaved
B3: His-SYCE3 (full-length, amino-acids 1-88) (natural protein, human, UniProt A1L190 1-88, looked up)
chain: B2 chain
notes: SYCE3, full-length = amino-acids 1-88; source: E. coli BL21(DE3), co-expressed with MBP fusions; in lysate (amylose pull-down) or co-purified; not shown: His, N-terminal, kept
B4: MBP-SYCE3 (natural protein, human, UniProt A1L190 1-88, looked up)
chain: B2 chain
notes: SYCE3 without a stated truncation; source: E. coli BL21(DE3), co-purified with SYCP1αNcore constructs
B5: SYCE3 W41E Y44E (natural protein, human, UniProt A1L190 1-88, looked up)
chain: B2 chain with W41E, Y44E
notes: SYCE3 with W41E Y44E; also called SYCE3 WY; WY mutant; source: E. coli BL21(DE3), purified, alone or co-purified with SYCP1 constructs; not shown: His or His-MBP, N-terminal, cleaved

Experiments:
[1] = molecular target: the molecule itself; assay: SEC-MALS; proteins in isolation, 5-20 mg/ml; Superdex 200 Increase, 20 mM Tris pH 8.0, 150 mM KCl, 2 mM DTT
[2] = molecular target: the molecule itself; assay: SEC-MALS; co-expressed and co-purified SYCP1-SYCE3 complexes, 5-20 mg/ml; 20 mM Tris pH 8.0, 150 mM KCl, 2 mM DTT (Superose 6 Increase for MBP-SYCP1αN-His-SYCE3)
[3] = molecular target: T1, SYCP1αNcore (amino-acids 206-362); assay: ITC; SYCE3 (400 μM) injected into SYCP1αNcore (70 μM) at 30°C; 25 mM Tris pH 8.0, 250 mM KCl, 2 mM DTT; apparent affinity; settings: both partners purified
[4] = molecular target: T2, SYCE2-TEX12core; assay: MST; SYCE3 titrated into 150 nM labelled SYCE2-TEX12core; Monolith NT.115, excitation and MST power 40 %; apparent affinity; settings: both partners purified
[5] = molecular target: B1; assay: SEC-MALS; co-expressed and co-purified SYCP1-SYCE3 complexes, 5-20 mg/ml; 20 mM Tris pH 8.0, 150 mM KCl, 2 mM DTT (Superose 6 Increase for MBP-SYCP1αN-His-SYCE3); settings: both partners purified
[6] = molecular target: T3, SYCP1αN (amino-acids 101-362); assay: as above; settings: both partners purified
[7] = molecular target: T4, SYCP1αN ΔNtip; assay: as above; settings: both partners purified
[8] = molecular target: T5, SYCP1αN V105E L109E; assay: as above; settings: both partners purified
[9] = molecular target: T1, SYCP1αNcore (amino-acids 206-362); assay: as above; settings: both partners purified
[10] = molecular target: T6, MBP-SYCP1αN; assay: as above; settings: both partners purified
[11] = molecular target: T7, MBP-SYCP1αNcore (amino-acids 206-362); assay: as above; settings: both partners purified

Row | Binder | stoichiometry N [1] | Kd [3] | apparent KD of one replicate [3] | stoichiometry N [6] | stoichiometry N [9] | stoichiometry N [11] | also measured
1 | B1 | 4 |  |  |  |  |  | stoichiometry N [2]: 2 SYCP1 chains in the complex with SYCE3
2 | B2 | 2 | 170 nM | 230 nM and 120 nM and 160 nM | 2 SYCP1 chains per SYCE3 chain (2:1) and 4 SYCP1 chains with 2 SYCE3 chains (4:2) | 2 SYCP1 chains per SYCE3 chain |  | Kd [4]: 21800 nM; stoichiometry N [5]: 2 SYCP1 chains per SYCE3 chain; stoichiometry N [7]: 2 SYCP1 chains per SYCE3 chain; stoichiometry N [8]: 2 SYCP1 chains per SYCE3 chain
3 | B3 |  |  |  |  |  | 2 SYCP1 chains per SYCE3 chain | stoichiometry N [10]: 2 SYCP1 chains per SYCE3 chain (2:1) and 4 SYCP1 chains with 2 SYCE3 chains (4:2)
4 | B4 |  |  |  |  | 2 SYCP1 chains per SYCE3 chain | 2 SYCP1 chains per SYCE3 chain | 
5 | B5 |  | 16 nM | 10 nM and 22 nM and 16 nM | 2 SYCP1 chains per SYCE3 chain | 2 SYCP1 chains per SYCE3 chain |  | 
